Experimental data reported in the supplement of paper PMC7125110.
± gives the standard error. For some assays here: This sample holds only a part of the variants without activity.

B1: glmS ribozyme (parent)
chain: AUAAAAGCGCCAGAACUACAGAAAUGUAGUUGACGAGGAGGAGGUUUAUCGAAUUUUCGGCGGAUGCCUCCAAA

How the values were obtained:
Details in all cases: with glucosamine-6-phosphate
glucosamine-6-phosphate [1] = variants of: B1; assay: kcat; higher = faster cleavage; RNA array
Outline: (§1)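 Barcoded glmS ribozyme variants on sequenced MiSeq chips were transcribed in situ by E. coli RNA polymerase and tracked through a hybridised Cy3 probe at 37 °C. Glucosamine-6-phosphate (40 μM to 10 mM) in HEPES/KCl/Mg(OAc)2 buffer was flowed in, and tiles were imaged over ~14 h. Signals were normalised to baseline and to non-cleaving reference variants; per-tile medians were fit to one- or two-exponential decays to give kobs. kcat and KM came from weighted Michaelis–Menten fits across concentrations.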

glucosamine-6-phosphate [2] = variants of: B1; assay: KM; higher = weaker cofactor use; RNA array
Outline: as §1

glucosamine-6-phosphate [3] = variants of: B1; assay: self-cleavage kobs at 160 uM GlcN6P; higher = faster cleavage; RNA array
Outline: as §1

glucosamine-6-phosphate [4] = variants of: B1; assay: self-cleavage kobs at 640 uM GlcN6P; higher = faster cleavage; RNA array
Outline: as §1

glucosamine-6-phosphate [5] = variants of: B1; assay: self-cleavage kobs at 2500 uM GlcN6P; higher = faster cleavage; RNA array
Outline: as §1

glucosamine-6-phosphate [6] = variants of: B1; assay: self-cleavage kobs at 10000 uM GlcN6P; higher = faster cleavage; RNA array
Outline: as §1

glucosamine-6-phosphate [7] = variants of: B1; assay: self-cleavage kobs at 40 uM GlcN6P; higher = faster cleavage; RNA array
Outline: as §1

Variant | kcat (glucosamine-6-phosphate [1]) | KM (glucosamine-6-phosphate [2]) | self-cleavage kobs at 160 uM GlcN6P (glucosamine-6-phosphate [3]) | self-cleavage kobs at 640 uM GlcN6P (glucosamine-6-phosphate [4]) | self-cleavage kobs at 2500 uM GlcN6P (glucosamine-6-phosphate [5]) | self-cleavage kobs at 10000 uM GlcN6P (glucosamine-6-phosphate [6]) | self-cleavage kobs at 40 uM GlcN6P (glucosamine-6-phosphate [7])
C16G G32A | 0.0013 ± 0.00037 s⁻¹ | 2870 ± 1300 µM | 7.04e-05 ± 1.7e-05 s⁻¹ | 0.0003 ± 5.5e-05 s⁻¹ | 0.000434 ± 0.00011 s⁻¹ | 0.00115 ± 0.00018 s⁻¹ | 
G40A U56A | 0.00543 ± 0.0016 s⁻¹ | 3080 ± 1300 µM | 0.000256 ± 5.7e-05 s⁻¹ | 0.00103 ± 0.00021 s⁻¹ | 0.00192 ± 0.00042 s⁻¹ | 0.00516 ± 0.0011 s⁻¹ | 9.01e-05 ± 2.5e-05 s⁻¹
G29U G32C | 0.000123 ± 3.9e-06 s⁻¹ | 2730 ± 250 µM |  |  | 5.78e-05 ± 8.5e-06 s⁻¹ | 9.71e-05 ± 8.4e-06 s⁻¹ | < 1e-05 s⁻¹
G29A A42G | 0.00587 ± 0.0021 s⁻¹ | 1120 ± 510 µM | 0.000587 ± 0.00015 s⁻¹ | 0.00227 ± 0.00083 s⁻¹ | 0.00308 ± 0.0011 s⁻¹ | 0.00757 ± 0.0021 s⁻¹ | 0.00025 ± 4.4e-05 s⁻¹
G9A C67A | < 1e-05 s⁻¹ |  | < 1e-05 s⁻¹ |  |  |  | < 1e-05 s⁻¹
G51A G59U | < 1e-05 s⁻¹ | 157 ± 36 µM |  | < 1e-05 s⁻¹ |  |  | < 1e-05 s⁻¹
G41C C71U | 0.000207 ± 2.1e-05 s⁻¹ | 2580 ± 590 µM |  | 3.67e-05 ± 8.3e-06 s⁻¹ | 0.000119 ± 1.8e-05 s⁻¹ | 0.00016 ± 1.7e-05 s⁻¹ | 
C11G A14G | 1.62e-05 ± 3.1e-06 s⁻¹ |  | < 1e-05 s⁻¹ |  |  |  | < 1e-05 s⁻¹
G38C C71U | < 1e-05 s⁻¹ |  |  | < 1e-05 s⁻¹ |  |  | < 1e-05 s⁻¹
C16U G29U | 0.00871 ± 0.0037 s⁻¹ |  | 0.000639 ± 8.5e-05 s⁻¹ | 0.00245 ± 0.00028 s⁻¹ | 0.00415 ± 0.00061 s⁻¹ | 0.0111 ± 0.0014 s⁻¹ | 0.000315 ± 2.9e-05 s⁻¹
G66C C71A | 0.000163 ± 2.2e-05 s⁻¹ |  |  |  | 0.000143 ± 1.5e-05 s⁻¹ | 0.000132 ± 2.2e-05 s⁻¹ | 
A12U C71G | 0.00158 ± 0.00072 s⁻¹ |  | 0.000316 ± 5.2e-05 s⁻¹ | 0.00125 ± 0.00015 s⁻¹ | 0.000947 ± 0.00021 s⁻¹ | 0.00305 ± 0.00048 s⁻¹ | 0.000203 ± 2.3e-05 s⁻¹
U31C A52U | 7.02e-05 ± 1.4e-05 s⁻¹ |  |  |  | 5.04e-05 ± 6e-06 s⁻¹ | 5.66e-05 ± 7.1e-06 s⁻¹ | 
U46C U55G | 0.00362 ± 0.00063 s⁻¹ | 1790 ± 450 µM | 0.000255 ± 5.8e-05 s⁻¹ | 0.00107 ± 0.00023 s⁻¹ | 0.00259 ± 0.00049 s⁻¹ | 0.00271 ± 0.00058 s⁻¹ | 8.17e-05 ± 2.1e-05 s⁻¹
G29U G40U | 0.000422 ± 3.9e-05 s⁻¹ | 1290 ± 220 µM | 4.21e-05 ± 1.1e-05 s⁻¹ | 0.00014 ± 1.5e-05 s⁻¹ | 0.00032 ± 4.6e-05 s⁻¹ | 0.000349 ± 4.9e-05 s⁻¹ | 
